Values joined by “and” are separate entries in the source; they are usually repeats but may differ in a detail not shown here. Equal values may be shown once.
Biological target: the molecule itself
Assay: native gel or EMSA; blue native PAGE (3-12% NativePAGE Bis-Tris) of 0.8 ug purified protein in loading buffer with 50 mM TCEP, 30 min at room temperature; Coomassie and western blot with Myc antibodies

B1: LC1 domain (residues 231–308) of rU1-70K (domain or fragment, UniProt P08621 231-308, looked up)
chain: RDRDRDRERERRERSRERDKERERRRSRSRDRRRRSRSRDKEERRRSRERSKDKDRDRKRRSSRSRERARRERERKEE
notes: The GST carrier was kept in BN-PAGE (~65 kDa on SDS-PAGE); also called LC1 alone; mixed charge LC1 domain; source: HEK293, transfected, in lysate
Q: B1 was tested. Which “stoichiometry N” value did it give?
A: 2 and 3 and 4

B2: N-terminal domain (residues 1–99) of rU1-70K (domain or fragment, UniProt P08621 1-99, looked up)
chain: MTQFLPPNLLALFAPRDPIPYLPPLEKLPHEKHHNQPYCGIAPYIREFEDPRDAPPPTRAETREERMERKRREKIERRQQEVETELKMWDPHNDPNAQG
notes: U1-70K residues 1-99 (N-terminus); The GST carrier was kept in BN-PAGE (~65 kDa on SDS-PAGE); also called N-terminus (1–99 residues) alone; source: HEK293, transfected, in lysate
Q: For B2, which “stoichiometry N” value is on record?
A: 2
